Laboratory results published in article PMC4349606, “Solution structure and biophysical characterization of the multifaceted signalling effector protein growth arrest specific-1” (BMC Biochemistry, 2015).
One block for each molecule: values may come before it.

Experiments:
RET (Homo sapiens) = RET (Homo sapiens) (UniProt P07949); conditions: cited from earlier work
[1] = target: T1, ectodomain of RET protein (ecRET; R&D Systems, catalog no. 1168-CR-050/CF) (UniProt P07949 29-635); assay: SPR; Biacore; ecRET amine-coupled to a CM5 chip at 4000 RU; GAS1 series 2-32 uM injected at 20 ul/min for 2 min; 10 mM Hepes pH 7.4, 150 mM NaCl, 1 mM CaCl2, 0.01% Triton X-100; Kd from equilibrium responses (Req), two independent experiments; conditions: both partners purified
T1 construct: Rearranged during transformation (RET) receptor tyrosine kinase, ectodomain; also called RET receptor; extracellular part of RET; source: bought: R&D Systems (catalog no. 1168-CR-050/CF)
T1 sequence (P07949 29-635): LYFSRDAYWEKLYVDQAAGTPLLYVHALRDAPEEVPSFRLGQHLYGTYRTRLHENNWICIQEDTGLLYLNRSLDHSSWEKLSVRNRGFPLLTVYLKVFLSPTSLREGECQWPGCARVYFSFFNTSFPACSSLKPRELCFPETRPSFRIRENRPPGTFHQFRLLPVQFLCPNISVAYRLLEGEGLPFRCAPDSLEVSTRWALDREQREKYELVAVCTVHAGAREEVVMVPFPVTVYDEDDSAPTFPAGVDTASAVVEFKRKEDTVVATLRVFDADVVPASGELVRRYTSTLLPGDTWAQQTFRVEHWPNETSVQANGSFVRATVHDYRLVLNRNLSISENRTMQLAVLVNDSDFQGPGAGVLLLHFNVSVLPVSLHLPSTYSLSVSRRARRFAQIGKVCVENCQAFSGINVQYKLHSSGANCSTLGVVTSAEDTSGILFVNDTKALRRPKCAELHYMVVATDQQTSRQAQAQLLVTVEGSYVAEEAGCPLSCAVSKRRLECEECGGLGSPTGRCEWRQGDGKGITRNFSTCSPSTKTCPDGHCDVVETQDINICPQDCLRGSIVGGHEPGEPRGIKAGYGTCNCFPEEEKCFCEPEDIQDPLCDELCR

Sequence of RET (Homo sapiens) (P07949 29-635): as above

Molecule: GFRα1-GDNF (from UniProt P56159)
Kd (RET (Homo sapiens)): 0.0002 µM

Kd [1]: 12.2 µM
B1: human growth arrest specific-1 (GAS1), soluble form without the GPI-anchor, amino acids 39-317 (domain or fragment, UniProt P54826 39-317, looked up)
chain: GLAHGRRLICWQALLQCQGEPECSYAYNQYAEACAPVLAQHGGGDAPGAAAAAFPASAASFSSRWRCPSHCISALIQLNHTRRGPALEDCDCAQDENCKSTKRAIEPCLPRTSGGGAGGPGAGGVMGCTEARRRCDRDSRCNLALSRYLTYCGKVFNGLRCTDECRTVIEDMLAMPKAALLNDCVCDGLERPICESVKENMARLCFGAELGNGPGSSGSDGGLDDYYDEDYDDEQRTGGAGGEQPLDDDDGVPHPPRPGSGAAASGGRGDLPYGPGRRS
modifications: glycosylated: approximately one N-glycan added in the insect cells (N-glycosylation site predicted at Asn117)
notes: secreted with the honey bee mellitin signal of the vector pK509.3; after thrombin cleavage Gly-Ser of the site probably remains at the N-terminus (surmise); Theoretical mass without glycan printed as 29.0 kDa; also called recombinant human GAS1; not shown: FLAG, N-terminal, cleaved; His6, N-terminal, cleaved
